Values quoted from earlier work as cited in article PMC11784315.

Molecular target: Spike S1 S1 (Severe acute respiratory syndrome coronavirus 2) (UniProt P0DTC2)

DC-SIGN, sequence (Q9NNX6 whole entry): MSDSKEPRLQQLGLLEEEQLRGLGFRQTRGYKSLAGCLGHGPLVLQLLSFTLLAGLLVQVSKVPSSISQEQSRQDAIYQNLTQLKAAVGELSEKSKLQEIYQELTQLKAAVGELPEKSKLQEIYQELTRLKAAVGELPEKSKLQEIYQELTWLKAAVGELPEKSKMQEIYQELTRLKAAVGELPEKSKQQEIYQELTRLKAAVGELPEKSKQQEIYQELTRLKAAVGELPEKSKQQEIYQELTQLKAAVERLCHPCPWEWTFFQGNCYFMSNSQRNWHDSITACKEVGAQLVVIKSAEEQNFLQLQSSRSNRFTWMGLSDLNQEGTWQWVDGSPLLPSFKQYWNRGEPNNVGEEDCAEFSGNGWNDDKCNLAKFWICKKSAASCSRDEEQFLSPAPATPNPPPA

DC-SIGN (from UniProt Q9NNX6)
Kd: 420 nM
